Test results reported in patent publication US5512545.

Biological target: PDGF receptors (alpha and beta sub-units)

Mitogenesis ng/ml ([3H]thymidine uptake by Swiss 3T3 cells; activity read from the dose response curve of the PDGF-BB standard c-sis): 308 ng/mL
Substance: PDGF-B (naturally occurring, full length; product of Comparative Example A) (ligand)
